In PMC3561149, “Bifurcation of Arabidopsis NLR Immune Signaling via Ca2+-Dependent Protein Kinases”:
Residue numbers refer to the chain shown, from its start.

B1: W-boxes probe (four W-boxes of WRKY46 promoter) (dsDNA)
DNA 1: CTGTCAATTCTTTGACCCCAGTTGACGAATGTCAATT
DNA 2: AATTGACATTCGTCAACTGGGGTCAAAGAATTGACAG
B2: mW-boxes probe (mutated W-boxes) (dsDNA)
DNA 1: B1 DNA 1 with G3T, C16A, C26A, G31T
DNA 2: B1 DNA 2 with C7A, G12T, G22T, C35A
B3: unlabeled W-boxes oligonucleotide (specific competitor) (dsDNA)
DNA 1: B1 DNA 1
DNA 2: B1 DNA 2

Experiments:
[1] = biological target: T1, MBP-WRKY48 (Arabidopsis thaliana (Col-0), UniProt Q9FGZ4 1-399); experiment: EMSA; unphosphorylated; EMSA: 5x binding buffer (4% glycerol, 1 mM MgCl2, 0.5 mM EDTA, 0.5 mM DTT, 10 mM Tris-HCl pH 7.5), 1 ug poly-dIdC, BSA, 2.5 ug protein, ~20,000 cpm probe, room; settings: protein: recombinant; tags: MBP (pMAL-C2); label: 32P 5' end label
[2] = biological target: T1, MBP-WRKY48; experiment: competition; unlabeled competitor vs labeled W-boxes; binding largely reduced; EMSA: 5x binding buffer (4% glycerol, 1 mM MgCl2, 0.5 mM EDTA, 0.5 mM DTT, 10 mM Tris-HCl pH 7.5), 1 ug poly-dIdC, BSA, 2.5 ug protein, ~20,000 cpm probe, room; settings: protein: recombinant; tags: MBP (pMAL-C2); label: none

T1 sequence (Q9FGZ4 whole entry): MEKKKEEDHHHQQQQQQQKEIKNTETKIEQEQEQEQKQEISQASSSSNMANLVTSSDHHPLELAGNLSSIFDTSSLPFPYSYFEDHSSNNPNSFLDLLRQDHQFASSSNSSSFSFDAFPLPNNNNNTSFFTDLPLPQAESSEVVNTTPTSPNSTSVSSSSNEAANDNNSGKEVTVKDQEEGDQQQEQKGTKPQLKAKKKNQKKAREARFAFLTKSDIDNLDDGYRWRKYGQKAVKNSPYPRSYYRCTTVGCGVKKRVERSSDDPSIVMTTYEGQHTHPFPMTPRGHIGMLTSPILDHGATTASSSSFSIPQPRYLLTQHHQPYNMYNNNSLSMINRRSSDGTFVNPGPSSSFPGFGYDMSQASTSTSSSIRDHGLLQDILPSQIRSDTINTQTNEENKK

Binder | binding result [1] | binding result [2]
B1 | binds | –
B2 | no binding | –
B3 | – | binds
